Experimental data published in patent publication US20170355769A1 (AbbVie / Abbott, published 2017).
Where a chain is given by its changes, count along the chain named. One block for each binder: values may come before it.

Tests used:
[1] = target: T1, Cynomolgous B7-H3 on cells (cynomolgus); assay: FACS, 3T12 transfectants
T1 construct: whole, on cells; also called cyB7-H3; cyno B7-H3
Procedure: (§1) A selection of hits were subcloned using the MoFlo (Beckman, Indianapolis, Ind., US) by depositing a single cell per well into 96 well cell culture plates to ensure clonality of the cell line. Resulting colonies were screened for specificity by FACS using mouse 3T12 fibroblast cell lines expressing the human B7-H3, cynomolgous B7-H3 or mouse B7-H3. Isotype of each monoclonal antibody was determined using the Mouse Monoclonal Isostyping Kit (Roche, No. 11-493-027-001, Indianapolis, Ind., USA).

[2] = target: T2, Human full length B7-H3 (human, UniProt Q5ZPR3 29-534); assay: FACS, 3T12 transfectants
T2 construct: On 3T12 fibroblasts expressing full length human B7-H3 or on NCI-H1650 cells; signal peptide residues 1-28 stated; also called huB7-H3; CD276
T2 sequence: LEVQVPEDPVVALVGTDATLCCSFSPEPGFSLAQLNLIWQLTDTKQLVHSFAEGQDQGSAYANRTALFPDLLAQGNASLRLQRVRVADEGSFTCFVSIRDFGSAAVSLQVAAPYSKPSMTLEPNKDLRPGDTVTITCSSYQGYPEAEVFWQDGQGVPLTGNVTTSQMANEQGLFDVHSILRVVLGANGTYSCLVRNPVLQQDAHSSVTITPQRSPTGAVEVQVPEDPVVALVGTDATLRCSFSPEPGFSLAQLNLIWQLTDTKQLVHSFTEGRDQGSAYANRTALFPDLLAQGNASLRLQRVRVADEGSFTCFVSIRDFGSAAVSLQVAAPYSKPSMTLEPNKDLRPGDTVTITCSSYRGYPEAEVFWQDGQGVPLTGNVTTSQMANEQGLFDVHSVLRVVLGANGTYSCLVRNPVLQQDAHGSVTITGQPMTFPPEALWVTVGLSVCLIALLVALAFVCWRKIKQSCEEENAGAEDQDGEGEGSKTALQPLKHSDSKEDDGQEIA
Procedure: as §1

[3] = target: T3, Mouse B7-H3 on cells (mouse, UniProt Q8VE98 29-316); assay: FACS, 3T12 transfectants
T3 construct: whole, on cells
T3 sequence (looked up): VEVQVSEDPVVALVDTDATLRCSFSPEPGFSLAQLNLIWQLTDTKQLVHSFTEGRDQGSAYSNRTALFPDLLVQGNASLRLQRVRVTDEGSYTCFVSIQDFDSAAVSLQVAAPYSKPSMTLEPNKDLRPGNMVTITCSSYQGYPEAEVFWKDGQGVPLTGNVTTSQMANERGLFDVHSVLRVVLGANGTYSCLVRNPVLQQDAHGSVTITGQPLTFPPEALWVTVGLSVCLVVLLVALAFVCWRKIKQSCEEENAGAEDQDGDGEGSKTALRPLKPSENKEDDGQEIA
Procedure: as §1

[4] = target: T4, Human B7-H3-ECD (His tag) (human, UniProt Q5ZPR3 29-461); assay: SPR, mAb captured, ECD analyte
T4 construct: SPR analyte; also called huB7-H3; soluble ECD of human B7-H3
T4 sequence: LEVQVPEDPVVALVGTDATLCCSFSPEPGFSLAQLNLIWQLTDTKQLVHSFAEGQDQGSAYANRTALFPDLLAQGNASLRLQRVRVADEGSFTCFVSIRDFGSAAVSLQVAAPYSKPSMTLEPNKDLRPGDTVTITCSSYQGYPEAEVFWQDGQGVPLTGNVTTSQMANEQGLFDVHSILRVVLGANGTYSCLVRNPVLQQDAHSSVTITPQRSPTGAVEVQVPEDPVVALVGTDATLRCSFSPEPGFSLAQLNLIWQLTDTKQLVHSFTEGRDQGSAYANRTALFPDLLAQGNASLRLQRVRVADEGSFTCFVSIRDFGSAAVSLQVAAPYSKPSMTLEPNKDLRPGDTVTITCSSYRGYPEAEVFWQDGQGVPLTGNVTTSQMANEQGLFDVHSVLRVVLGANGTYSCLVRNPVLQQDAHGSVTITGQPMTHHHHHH

[5] = target: T5, Cyno B7-H3-ECD (his tag) (cynomolgus); assay: SPR, mAb captured, ECD analyte
T5 construct: SPR analyte; also called soluble ECD of cyno B7-H3
T5 chain: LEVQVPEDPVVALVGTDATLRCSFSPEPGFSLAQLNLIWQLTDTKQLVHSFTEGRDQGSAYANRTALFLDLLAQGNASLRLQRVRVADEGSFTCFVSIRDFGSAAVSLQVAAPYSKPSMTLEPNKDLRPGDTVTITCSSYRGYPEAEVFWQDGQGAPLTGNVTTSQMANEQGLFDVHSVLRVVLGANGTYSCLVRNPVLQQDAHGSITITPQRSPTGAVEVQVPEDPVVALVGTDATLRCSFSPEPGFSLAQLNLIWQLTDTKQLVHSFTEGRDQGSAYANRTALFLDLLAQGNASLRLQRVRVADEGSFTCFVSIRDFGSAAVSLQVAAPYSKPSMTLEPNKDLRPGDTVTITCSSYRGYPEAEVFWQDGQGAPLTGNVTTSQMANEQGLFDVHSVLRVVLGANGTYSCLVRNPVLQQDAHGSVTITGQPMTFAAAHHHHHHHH

B1: Ab12 (antibody, mouse IgG1, V domains shown)
VH: EVQLVESGGGLVKPGGSLKLSCAASGFTFSSYAMSWVRQTPEKRLEWVATISSGTNYTYYPDSVKGRFTISRDNAKNTLYLQMTSLRSEDTAMYYCARQGRYSWIAYWGQGTLVTVSA
VL: DIVLTQSPASLAVSLGQRATISCRASKSVSTSDYSYMHWNQQKPGQPPKLLIYLASNLESGVPARFSGSGSGTDFTLNIHPVEEEDAATYYCQHSRELLTFGAGTKLELK
notes: mouse IgG1/k
EC50 [1]: 6.71 nM | EC50 [2]: 3.88 nM | EC50 [3]: 8.72 nM | Kd [4]: 6.7 nM | koff [4]: 0.00025 s⁻¹ | kon [4]: 38000 M⁻¹ s⁻¹ | Kd [5]: ≤ 0.18 nM | koff [5]: ≤ 1e-05 s⁻¹ | kon [5]: 55000 M⁻¹ s⁻¹

B2: Ab8 (antibody, mouse IgG1, V domains shown)
VH: EVKLVESGGGLVKPGGSLKLSCAASGFTFSSYGMSWVRQTPEKRLEWVATISGGGNYTYCPDSVKGRFTISRDNAKNNLYLQMSSLRSEDTALYYCTRQRGYDYHYAMDFWGQGTSVTVSS
VL: DIQMTQSPASLSVSVGETVTITCRASENIYSNLAWHQQKQGKSPQLLVYAATNLADGVPSRFSGNGSDTQYSLKINSLQSEDFGSYFCQNFWGTSWTFGGGTKLEIK
notes: mouse IgG1/k
EC50 [1]: 8.63 nM | EC50 [2]: 3.83 nM | EC50 [3]: 193 nM | Kd [4]: 1.7 nM | koff [4]: 9.9e-05 s⁻¹ | kon [4]: 58000 M⁻¹ s⁻¹ | Kd [5]: 1.7 nM | koff [5]: 0.00026 s⁻¹ | kon [5]: 160000 M⁻¹ s⁻¹

B5: Ab9 (antibody, V domains shown)
VH: QVQLQQSGAEVKKPGSSVKVSCKASGGTFSSYAISWVRQAPGQGLEWMGGIIPILGIANYAQKFQGRVTITADESTSTAYMELSSLRSEDTAVYYCARGGSGSYHMDVWGKGTTVTVSS
VL: EIVLTQSPATLSLSPGERATLSCRASQSVSSYLAWYQQKPGQAPRLLIYDASNRATGIPARFSGSGSGTDFTLTISSLEPEDFAVYYCQQRSNWPPRITFGQGTRLEIKR
EC50 [1]: 259 nM | EC50 [2]: 4.49 nM | EC50 [3]: 0.72 nM | Kd [4]: 17 nM | koff [4]: 0.0011 s⁻¹ | kon [4]: 66000 M⁻¹ s⁻¹

B8: Ab10 (antibody, V domains shown)
VH: DVQLQESGPGLVKPSQSLSLTCTVTGYSITSDYAWNWIRQFPGNRLEWMGHINYSGITNYNPSLKSRISITRDTSKNQFFLQLYSVTTEDTATYFCARRSLFYYYGSSLYAMDYWGQGTSVTVSS
VL: DVVMTQSPFSLPVSLGDQASISCRSSQSLVHSNGNTYLHWYLQKPGQSPKLLIYKVSNRFSGVPDRFSGSGSGTDFTLKISRVEAEDLGVYFCSQSTHVPWTFGGGTKLEIK
notes: mouse IgG2b/k
EC50 [1]: 4.46 nM | EC50 [2]: 3.97 nM | EC50 [3]: 3.8 nM | Kd [4]: 4.6 nM | koff [4]: 0.00019 s⁻¹ | kon [4]: 41000 M⁻¹ s⁻¹ | Kd [5]: 20 nM | koff [5]: 0.0042 s⁻¹ | kon [5]: 200000 M⁻¹ s⁻¹

B10: Ab18 (antibody, mouse IgG1, V domains shown)
VH: QVQLQQSAAELARPGASVKMSCKASGYSFTSYTIHWVKQRPGQGLEWIGYINPNSRNTDYNQKFKDETTLTADRSSSTAYMQLISLTSEDSAVYYCARYSGSTPYWYFDVWGAGTTVTVSS
VL: QIVLTQSPAILSASPGEKVTMTCRASSSVSYMNWYQQKPGSSPKPWIYATSNLASGVPARFSVSVSGTSHSLTISRVEAEDAATYYCQQWSSNPLTFGAGTKLELK
notes: mouse IgG1/k
EC50 [1]: 6.49 nM | EC50 [2]: 5.98 nM | binding result [3]: no binding | Kd [4]: 0.17 nM | koff [4]: 3.6e-05 s⁻¹ | kon [4]: 210000 M⁻¹ s⁻¹ | Kd [5]: 0.12 nM | koff [5]: 2.9e-05 s⁻¹ | kon [5]: 240000 M⁻¹ s⁻¹

Stronger by EC50 [1], values ahead:

EC50 [1]: 4.12 nM | EC50 [2]: 1.94 nM | EC50 [3]: 25.8 nM | Kd [4]: 17 nM | koff [4]: 0.0058 s⁻¹ | kon [4]: 330000 M⁻¹ s⁻¹ | Kd [5]: 8.4 nM | koff [5]: 0.0037 s⁻¹ | kon [5]: 440000 M⁻¹ s⁻¹
B6: Ab13 (antibody, mouse IgG1, V domains shown)
VH: DVQLQESGPDLVKPSQSLSLTCTVTGYSITSGYSWHWIRQFPGNKLEWMGYIHSSGSTNYNPSLKSRISINRDTSKNQFFLQLNSVTTEDTATYYCAGYDDYFEYWGQGTTLTVSS
VL: DIVMTQSQKFMSTSVGDRVSVTCKASQNVGFNVAWYQQKPGQSPKALIYSASYRYSGVPDRFTGSGSGTDFTLTISNVQSEDLAEYFCQQYNSYPFTFGSGTKLEIK
notes: mouse IgG1/k

EC50 [1]: 3.1 nM | EC50 [2]: 4.06 nM | EC50 [3]: 1.75 nM | Kd [4]: 1.6 nM | koff [4]: 0.0011 s⁻¹ | kon [4]: 690000 M⁻¹ s⁻¹ | Kd [5]: 1.8 nM | koff [5]: 0.00096 s⁻¹ | kon [5]: 540000 M⁻¹ s⁻¹
B9: Ab4 (antibody, mouse IgG2b, V domains shown)
VH: QVQLQQPGAELVKPGASVKLSCKASGYSFTSYWMHWVKQRPGQGLEWIGMIHPNSGSNNYNEKFKSKATLTVDKSSNTAYMQLSSLTSEDSAVYYCARRLGLHFDYWGQGTTLTVSS
VL: DIVMTQSQKFMSTPVGDRVSITCKASQNVGTAVAWYQQKPGQSPKLLIYSASNRYTGVPDRFTGSGSGTDFTLTISNMQSEDLADYFCQQYSSYPYTFGGGTKLEIK
notes: mouse IgG2b/k

EC50 [1]: 2.97 nM | EC50 [2]: 3.03 nM | EC50 [3]: 102 nM | Kd [4]: 13 nM | koff [4]: 0.0014 s⁻¹ | kon [4]: 110000 M⁻¹ s⁻¹ | Kd [5]: 4.3 nM | koff [5]: 0.003 s⁻¹ | kon [5]: 690000 M⁻¹ s⁻¹
B4: Ab14 (antibody, mouse IgG1, V domains shown)
VH: EVKLVESGGGLVKPGGSLKLSCAASGFTFSSYGMSWVRQTPEKRLEWVATISGGGTNTYYPDSVEGRFTISRDNAKNFLYLQMSSLRSEDTALYYCARHYGSQTMDYWGQGTSVTVSS
VL: DIQMTQSPASLSASVGETVTITCRTSGNIHNYLTWYQQKQGKSPQLLVYNAKTLADGVPSRFSGSGSGTQFSLKINSLQPEDFGSYYCQHFWSIMWTFGGGTKLEIK
notes: mouse IgG1/k

EC50 [1]: 2.67 nM | EC50 [2]: 3.22 nM | EC50 [3]: 67.1 nM | binding result [5]: binds
B3: Ab7 (antibody, mouse IgG1, V domains shown)
VH: EVQLVESGENLVKPGGSLKLSCAASGFSFRGYGMSWVRQTPDKRLEWVAAISTGGNYTYYPDSVQGRFTISRDNANNTLYLQMSSLKSEDTAMYYCARRGGNYAGFAYWGQGTLVTVSA
VL: B2 VL with A25P, H36Y, N65S, D68G, S85T, F87Y, N90H, S95P, W96F, G100S
notes: mouse IgG1/k

EC50 [1]: 1.91 nM | EC50 [2]: 2.71 nM | EC50 [3]: 6.01 nM | Kd [4]: 9.2 nM | koff [4]: 0.012 s⁻¹ | kon [4]: 1.3e+06 M⁻¹ s⁻¹ | Kd [5]: 200 nM | koff [5]: 0.28 s⁻¹ | kon [5]: 1.4e+06 M⁻¹ s⁻¹
B7: Ab5 (antibody, mouse IgG1, V domains shown)
VH: QVQLQQPGDELVKPGASVKLSCKTSGYTFTTDWMHWVKQRPGQGLEWIGMIHPNSGTTNYNEKFKSKAALTVDKSSSTACMQLSSLTSEDSAVYYCARSYWKWYFDVWGTGTTVTVSS
VL: QIVLTQSPAIMSASLGEEITLTCSASSSVSYMHWYQQKSGTSPKLLIYSTSNLASGVPSRFSGSGSGTFYSLTISSVEAEDSADYYCHQWTSYMYTFGGGTKLEIK
notes: mouse IgG1/k
